Measurements taken from patent US20240124607A1 (Merck Sharp & Dohme, published 2024).
Substitutions are numbered along the chain they refer to.

T1: human CEACAM8 on Ba/F3 cells (human, UniProt P31997 35-320)
T1 construct: whole, on cells
T1 sequence (looked up): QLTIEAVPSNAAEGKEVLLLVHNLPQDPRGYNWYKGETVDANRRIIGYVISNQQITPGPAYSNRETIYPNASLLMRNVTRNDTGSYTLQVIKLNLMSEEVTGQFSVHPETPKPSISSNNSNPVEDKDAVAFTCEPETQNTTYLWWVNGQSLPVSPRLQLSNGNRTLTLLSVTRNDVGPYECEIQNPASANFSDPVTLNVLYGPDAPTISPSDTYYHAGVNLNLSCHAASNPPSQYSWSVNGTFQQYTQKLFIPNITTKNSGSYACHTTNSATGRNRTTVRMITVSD

T2: Human CEACAM5 (E398) (human, UniProt P06731 35-685, limits assumed)
T2 construct: also called hCEACAM5
T2 sequence: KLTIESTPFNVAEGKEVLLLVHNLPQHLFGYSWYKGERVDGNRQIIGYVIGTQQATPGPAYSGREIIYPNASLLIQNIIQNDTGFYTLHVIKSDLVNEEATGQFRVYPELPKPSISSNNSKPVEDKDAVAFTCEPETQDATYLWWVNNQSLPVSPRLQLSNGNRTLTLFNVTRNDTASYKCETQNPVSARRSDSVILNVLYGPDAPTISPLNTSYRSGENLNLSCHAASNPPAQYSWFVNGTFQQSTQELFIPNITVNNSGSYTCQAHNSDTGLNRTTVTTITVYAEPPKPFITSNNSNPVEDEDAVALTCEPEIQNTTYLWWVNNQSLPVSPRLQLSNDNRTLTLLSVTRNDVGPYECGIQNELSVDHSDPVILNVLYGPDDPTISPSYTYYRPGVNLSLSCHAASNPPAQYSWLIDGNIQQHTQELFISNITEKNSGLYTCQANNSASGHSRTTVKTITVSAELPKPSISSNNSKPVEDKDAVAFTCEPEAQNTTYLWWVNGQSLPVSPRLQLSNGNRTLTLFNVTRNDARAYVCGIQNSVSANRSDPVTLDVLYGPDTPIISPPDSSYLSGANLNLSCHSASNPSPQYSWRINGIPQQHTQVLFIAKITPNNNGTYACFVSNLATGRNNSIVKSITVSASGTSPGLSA

T3: human CEACAM5 on cells (human, UniProt P06731 35-685)
T3 construct: tumour cell lines with endogenous CEACAM5, or B16F10 engineered to express hCEACAM5; also called CEACAM5 on MKN-45, HPAF-II, SK-CO-1, LoVo, BxPC-3, Kato-III, LS-174T, ZR-75-30; hCEACAM5-B16F10
T3 sequence: T2 sequence

B1: AB0466 F3' CEACAM5 TriNKET (bispecific antibody, human IgG1, kappa)
chain: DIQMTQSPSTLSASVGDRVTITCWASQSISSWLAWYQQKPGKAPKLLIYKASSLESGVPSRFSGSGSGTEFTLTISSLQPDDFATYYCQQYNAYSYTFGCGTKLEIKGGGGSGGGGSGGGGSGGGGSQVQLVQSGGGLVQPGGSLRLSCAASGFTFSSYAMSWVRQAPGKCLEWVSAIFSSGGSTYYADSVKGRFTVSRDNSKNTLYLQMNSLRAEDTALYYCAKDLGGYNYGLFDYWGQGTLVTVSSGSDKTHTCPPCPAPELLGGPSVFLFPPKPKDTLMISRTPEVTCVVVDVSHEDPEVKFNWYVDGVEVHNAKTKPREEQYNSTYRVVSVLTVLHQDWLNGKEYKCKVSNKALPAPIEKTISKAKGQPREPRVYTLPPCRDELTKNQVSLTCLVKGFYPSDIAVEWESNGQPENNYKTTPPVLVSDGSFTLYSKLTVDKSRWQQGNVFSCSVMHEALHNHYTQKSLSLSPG
heavy: EVQLVESGGGLVKPGGSLRLSCAASGFTFSSYSMNWVRQAPGKGLEWVSSISSSSSYIYYADSVKGRFTISRDNAKNSLYLQMNSLRAEDTAVYYCARGAPIGAAAGWFDPWGQGTLVTVSSASTKGPSVFPLAPSSKSTSGGTAALGCLVKDYFPEPVTVSWNSGALTSGVHTFPAVLQSSGLYSLSSVVTVPSSSLGTQTYICNVNHKPSNTKVDKKVEPKSCDKTHTCPPCPAPELLGGPSVFLFPPKPKDTLMISRTPEVTCVVVDVSHEDPEVKFNWYVDGVEVHNAKTKPREEQYNSTYRVVSVLTVLHQDWLNGKEYKCKVSNKALPAPIEKTISKAKGQPREPQVCTLPPSRDELTENQVSLTCLVKGFYPSDIAVEWESNGQPENNYKTTPPVLDSDGSFFLYSWLTVDKSRWQQGNVFSCSVMHEALHNHYTQKSLSLSPG
light: DIQMTQSPSSVSASVGDRVTITCRASQGISSWLAWYQQKPGKAPKLLIYAASSLQSGVPSRFSGSGSGTDFTLTISSLQPEDFATYYCQQGVSFPRTFGGGTKVEIKRTVAAPSVFIFPPSDEQLKSGTASVVCLLNNFYPREAKVQWKVDNALQSGNSQESVTEQDSKDSTYSLSSTLTLSKADYEKHKVYACEVTHQGLSSPVTKSFNRGEC
B2: AB0411 F3' CEACAM5 TriNKET (bispecific antibody, human IgG1, kappa)
chain: DIQLTQSPATLSVSPGERATLSCRASQSVSSSYLAWYQQKPGQAPRLLIYGASSRATGIPDRFSGSGSGTDFTLTISRLEPEDFAVYYCQQYNNWPLTFGCGTKVEIKGGGGSGGGGSGGGGSGGGGSQVQLVQSGGGLVQPGGSLRLSCAASGFTFTSYAMSWVRQAPGKCLEWVSAISGTGDSTFYADSVKGRFTFSRDNSKNTLYLQMNSLRAEDTAVYYCAKDLGWLQYGLFDYWGQGTLVTVSSGSDKTHTCPPCPAPELLGGPSVFLFPPKPKDTLMISRTPEVTCVVVDVSHEDPEVKFNWYVDGVEVHNAKTKPREEQYNSTYRVVSVLTVLHQDWLNGKEYKCKVSNKALPAPIEKTISKAKGQPREPRVYTLPPCRDELTKNQVSLTCLVKGFYPSDIAVEWESNGQPENNYKTTPPVLVSDGSFTLYSKLTVDKSRWQQGNVFSCSVMHEALHNHYTQKSLSLSPG
heavy: B1 heavy
light: B1 light
B3: AB0621 F3' CEACAM5 TriNKET (bispecific antibody, human IgG1, kappa)
chain: DIVMTQSPDSLAVSLGERATINCKSSHSLLYGNFQNNYLAWYQQKPGQPPKLLIYWASTRESGVPDRFSGSGSGTDFTLTISSLQAEDVAVYYCQQYYSYPYTFGCGTKLEIKGGGGSGGGGSGGGGSGGGGSQVQLVQSGAEVKKPGASVKVSCKASGYTFTAYTIHWVRQAPGQCLEWMGYINPSSGYTEYNQKFKDRTTLTADTSISTAYMELSRLRSDDTAVYYCTREGGLLWFDYWGQGTLVTVSSGSDKTHTCPPCPAPELLGGPSVFLFPPKPKDTLMISRTPEVTCVVVDVSHEDPEVKFNWYVDGVEVHNAKTKPREEQYNSTYRVVSVLTVLHQDWLNGKEYKCKVSNKALPAPIEKTISKAKGQPREPRVYTLPPCRDELTKNQVSLTCLVKGFYPSDIAVEWESNGQPENNYKTTPPVLVSDGSFTLYSKLTVDKSRWQQGNVFSCSVMHEALHNHYTQKSLSLSPG
heavy: B1 heavy
light: B1 light
B4: AB0264 F3' CEACAM5 TriNKET (bispecific antibody, human IgG1, kappa)
chain: B3 chain with S210P
heavy: B1 heavy
light: B1 light

How the values were obtained:
[1] = target: human CD16A (FcγRIIIA) F158 (human, UniProt P08637 17-208, limits assumed, biotinylated); experiment: SPR, biotin-CD16A on SA chip, 25C, pH 7.4
Experimental: (§1) Binding to human and cynomolgus CD16A was assessed using biotinylated CD16A captured on a streptavidin (SA) sensor chip (Cytiva, #BR100531). AB0411, AB0466, or AB0621 was titrated from 1500 nM at 25° C. at 30 μL/min for 150 sec association followed by 300 sec dissociation. The surface of the chip was regenerated with 2 mM sodium hydroxide for 5 sec at 30 μL/min. Running buffer was HBS-EP+. […] The V158 isoform bound ˜2- to 3-fold tighter than the F158 isoform as expected.

Cyno FcγRIIIA = target: T4, Cyno FcγRIIIA (cynomolgus monkey, UniProt Q8SPW2 17-208, limits assumed, biotinylated); experiment: SPR, biotin-CD16A on SA chip, 25C, pH 7.4
T4 construct: also called cynomolgus CD16A
Experimental: as §1

[2] = target: T1, human CEACAM8 on Ba/F3 cells; experiment: flow cytometry on Ba/F3 cells expressing human CEACAM8, fold over background (FOB), 5-fold dilutions from 1600 nM
Experimental: To examine the binding specificity of the TriNKETs to CEACAM5 compared to other CEACAM family members, Ba/F3 cells were engineered to express one of human CEACAM1, CEACAM6, CEACAM8, or cynomolgus CEACAM5. CEACAM5 TriNKETs were evaluated by flow cytometry starting at 1600 nM followed by 7 5-fold dilutions.

Human CEACAM5 (E398) = target: T2, Human CEACAM5 (E398); experiment: SPR, anti-hFc capture, 37C, pH 6.0
Experimental: To determine the affinity and cross-reactivity of CEACAM5 TriNKET molecules, AB0411, AB0466, or AB0621 TriNKETs were captured using an anti-human Fc capture antibody (Cytiva, #BR100839) immobilized onto a Biacore CM5 standard surface sensor chip following manufacturer instructions. Human or cynomolgus CEACAM5 were titrated over captured AB0411, AB0466, and AB0621 as 2-fold serial dilutions starting from 300 nM. Association was monitored for 300 sec and dissociation was monitored for 600 sec. The assay was run at 37° C. at pH 7.4 and 6.0. The surface of the CM5 chip was regenerated with 10 mM glycine pH 1.5 for 20 sec at 100 μL/min.

human CEACAM5 on cells = target: T3, human CEACAM5 on cells; experiment: flow cytometry, HPAF-II cells
Experimental: MKN-45 and HPAF-II human cancer cell lines were diluted into FACS buffer and 100,000 cells of each cell type were seeded per well in duplicate into 96-well plates for FACS staining. The cells were washed with PBS, incubated in a 1:2000 dilution of live/dead dye in PBS for 15 minutes, and then washed with FACS buffer. AB0264, AB0411, AB0466, and AB0621 were diluted into FACS buffer, and 50 μl of each diluted TriNKET was added to the cells. After incubation on ice for 30-120 minutes, the cells were washed with FACS buffer. Anti-human IgG-Fc secondary antibody was diluted into FACS buffer, and 50 μl was added per well for detection of the bound TriNKETs. The cells were incubated for 30-60 minutes on ice and then washed with FACS buffer. 50 μl of fixation buffer was added to each well and the cells were incubated for 10 minutes at room temperature. The cells were washed with FACS buffer and resuspended in FACS buffer for analysis with ThermoFisher Attune NxT, BD FACS Celesta SN #H66034400085, or BD FACS Celesta SN #H66034400160.
Cells of interest were identified using FSC vs. SSC plot and an appropriately shaped gate was drawn around the cells. Within the gated cells, doublet cells were removed by viewing FSC-H vs. FSC-A plot. Within the single cell population, live cells were gated. Within the live gate, the median fluorescence intensity (MFI) of each sample and the secondary-only control was calculated. Fold-over-background (FOB) was calculated as the ratio of test article MFI over secondary-only background MFI. Data were fit to a four-parameter non-linear regression curve using GraphPad Prism 7.0.

T4 sequence (Q8SPW2 17-208 limits assumed): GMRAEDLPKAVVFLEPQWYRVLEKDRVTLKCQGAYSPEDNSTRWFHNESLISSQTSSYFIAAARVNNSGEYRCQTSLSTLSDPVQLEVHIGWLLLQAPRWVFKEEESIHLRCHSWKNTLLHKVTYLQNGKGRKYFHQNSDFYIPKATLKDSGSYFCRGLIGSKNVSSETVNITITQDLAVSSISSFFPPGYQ
Chain of human CD16A (FcγRIIIA) F158 (P08637 17-208 limits assumed): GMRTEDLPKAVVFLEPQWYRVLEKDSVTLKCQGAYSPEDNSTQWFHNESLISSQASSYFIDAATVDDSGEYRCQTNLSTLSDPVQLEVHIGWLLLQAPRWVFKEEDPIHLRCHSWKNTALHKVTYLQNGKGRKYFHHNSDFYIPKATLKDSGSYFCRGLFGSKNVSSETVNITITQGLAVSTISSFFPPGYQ

| Kd [1] [nM] | koff [1] [s⁻¹] | kon [1] [M⁻¹ s⁻¹] | Kd (Cyno FcγRIIIA) [nM] | koff (Cyno FcγRIIIA) [s⁻¹] | kon (Cyno FcγRIIIA) [M⁻¹ s⁻¹] | binding result [2] | Kd (Human CEACAM5 (E398)) [nM] | kon (Human CEACAM5 (E398)) [M⁻¹ s⁻¹] | EC50 (human CEACAM5 on cells) [nM] | Max FOB (human CEACAM5 on cells) [fold over background] | Binder |
| --- | --- | --- | --- | --- | --- | --- | --- | --- | --- | --- | --- |
| 690 | 0.21 | 310000 | 140 | 0.11 | 790000 | no binding (tested: 1600 nM) | 15 | 160000 | 7.61 | 49 | B1 |
| 370 | 0.086 | 220000 | 100 | 0.075 | 730000 | – | 1.9 | 310000 | 8.36 | 54.9 | B2 |
| 640 | 0.19 | 300000 | 160 | 0.11 | 720000 | no binding (tested: 1600 nM) | 14 | 140000 | 18.1 | 24.9 | B3 |
| – | – | – | – | – | – | no binding (tested: 1600 nM) | – | – | 20.3 | 27.9 | B4 |
